Results taken from patent publication US6645501B2, “Anti-pathogen system and methods of use thereof” (Washington University, priority 1997, dated 2003).
Entries after “also recorded” stand apart in the source; their conditions may differ.

B1: TAT-Casp3MUT: catalytically inactive TAT-Casp3 with Met substituted for the active site Cys163 residue (protein)
chain: GRKKRRQRRRGYPYDVPDYACTERQANFLGKIWPGISLDNSYKMDYPEMGLCIIINNKNFHKSTGMTSRSGTDVDAANLRETFRNLKYEVRNKNDLTREEIVELMRDVSKEDHSKRSSFVCVLLSHGEEGIIFGTNGPVDLKKITNFFRGDRCRSLTGKPKLFIIQAMRGTELDCGIETSQVSQNYPIVQNLQGVDDDMACHKIPVEADFLYAYSTAPGYYSWRNSKDGSWFIQSLCAMLKQYADKLEFMHILTRVNRKVATEFESFSFDATFHAKKQIPCIVSMLTKELYFYH
modifications: left off: small tags and cut ends

How the values were obtained:
Jurkat T cells [1] = assay: Cytotoxicity of TAT-Casp3 on uninfected Jurkat T cells, viability by Trypan Blue exclusion; conditions: 100 nM TAT-Casp3 or 50 nM TAT-HIV Pr, uninfected Jurkat T cells, 16 hr
Method: In addition, the ability of TAT-Casp3 protein to induce apoptosis in cells co-transduced with TAT-HIV Pr protein was tested. Jurkat T cells were treated with 100 nM TAT-Casp3WT or TATCasp3MUT proteins alone or in combination with 50 nM TAT-HIV Pr protein and assayed for cell viability 16 hr post-treatment (FIG. 11A). […] See Salvensen, G. S., et al., Henkart, P. A., Cohen, G. M., Woo, M., et al., Enari, M. et al., Liu, X., et al. (supra).
FIG. 11A Cultures of Jurkat T cells were transduced with combinations of TAT-Casp3WT (WT), TAT-Casp3MUT (MUT) and TAT-HIV Protease (Pr) proteins for 16 hr and analyzed for cell viability. […] FIG. 11B Cultures of Jurkat T cells were co-transduced with TAT-Casp3WT (WT), TAT-Casp3MUT (MUT) proteins in combination with TAT-HIV Pr (Pr) protein and analyzed for kinetics of cell viability as indicated.
1. Cell culture-p16(−) Jurkat T cells (ATCC) were grown as described. See Lissy, N. A., et al. (supra). For in vivo substrate cleavage, 1×10^6 cells were transduced with 100 nM TAT-p16, TAT-A-p16, TAT-Casp3MUT and/or 50 nM TAT-HIV Pr proteins for 1, 5 or 8 hr as indicated and analyzed by anti-p16 (Santa Cruz) or anti-Casp3 (Pharmingen) immunoblot analysis. See Ezhevsky, S. A., et al. (supra). For cytotoxicity of TAT-Casp3 on uninfected cells, 1×10^6 cells were transduced with 100 nM TAT-Casp3WT, TAT-Casp3MUT and/or 50 nM TAT-HIV Pr proteins for 16 hr and assayed for viability by Trypan Blue exclusion and/or genomic DNA damage by TUNEL assay (Trevigen). Number of TUNEL positive cells reported as per high-powered microscopic field with four fields per experiment averaged. TAT-Casp3 activity was measured by incubation of 20 μg of whole cell lysate with 50 μM DEVD-AFC and fluorescent AFC formation measured on a FL500 microplate fluorescence reader (Bio-Tek) as described. See Xiang, J., et al., (supra). Cells were preincubated with 1 μg/ml Ritonavir (Abbott Labs) for 1 hr prior to transduction. For cytotoxicity of TAT-Casp3 on infected cells, Jurkat cultures were infected with 100 ng p24 Ag equivalent NLHX HIV-I strain for 7-14 days, assayed microscopically for cytopathic effects, then replated at 1×10^6/ml and transduced with 100 nM of TAT-Casp3WT or TAT-Casp3MUT proteins for 16 hr followed by exclusionary dye viability analysis. Infected cells were pretreated with 1 μg/ml Ritonavir for 24 hr prior to transduction with TAT-Casp3WT protein. See Xiang, J., et al., (supra). For Flow Cytometry (FACS) analysis, fluorescein (FITC) conjugated TAT fusion proteins were added to Jurkat T cell culture media and 1×10^4 cells were analyzed by FACS as described. See Ezhevsky, S. A., et al. (supra).

Jurkat T cells [2] = assay: FACS and confocal analysis of FITC-labeled TAT fusion proteins added to Jurkat T cells; assay type: cell-based; conditions: FITC-labeled protein added to media of Jurkat T cells
Method: To test the ability of TAT-Casp3 proteins to transduce into cells, TAT-Casp3 proteins were conjugated to fluorescein (FITC), then added directly to the media of Jurkat T cells and analyzed by Flow Cytometry (FACS) (FIGS. 9B-C). Both TAT-Casp3WT and TAT-Casp3MUT proteins rancidly transduced into ˜100% of cells, achieving maximum intracellular concentration in less than 20 min. In addition, based on the narrow peak width before and after addition of FITC labeled proteins, individual cells within the population contain near identical intracellular concentrations of TAT-Casp3-FITC protein. […] Thus, TAT-Casp3 proteins readily transduce into 100% of all cells inca rapid and concentration-dependent fashion.
The generation and transduction of TAT fusion proteins shown in FIGS. 9A-E are explained in more detail as follows: FIG. 9A. Diagram depicting HIV cleavage site sequences and domains of TAT fusion proteins. FIGS. 9B-D. FACS kinetic analysis of fluorescein (FITC) labeled TAT-Casp3WT, TAT-Casp3MUT and TAT-HIV Pr proteins added to cells at 0, 20 and 30 min. FIG. 9E. FACS dose analysis of 3, 6, and 12 nM TAT-Casp3WT-FITC protein added to cells at I hr post-addition. Note rapid, concentration-dependent transduction of all FITC labeled protein into ˜100% of cells and near identical intracellular concentration within the population as measured by FACS peak width of control vs. transduced cells.
(§1) 1. […] See Lissy, N. A., et al. (supra). […] See Ezhevsky, S. A., et al. (supra). […] See Xiang, J., et al., (supra). […] See Xiang, J., et al., (supra). […] See Ezhevsky, S. A., et al. (supra).

Jurkat T cells [3] = assay: TUNEL assay for degraded genomic DNA in transduced Jurkat T cells; assay type: cell-based; conditions: for TUNEL positive cells, protein transduced alone: 100 nM TAT-Casp3 or 50 nM TAT-HIV Pr
Method: (§2) Additionally, transduced cultures were tested for degraded genomic DNA by TUNEL assay. See Coates, P. J., Molecular methods for the identification of apoptosis in tissues. J. Histotechnology 17: 261 (1994). […] Activation of TAT-Casp3 was also assayed by its ability to cleave an artificial Caspase-3 substrate. […] See Xiang, J., et al., Bax-induced cell death may not require interleukin 1B-converting enzyme-like proteases. Proc. Natl. Acad. Sci. USA 93: 14550 (1996).
(§3) The HIV Protease activates TAT-Casp3WT protein shown in FIGS. 12A-B are explained in more detail as follows. FIG. 12A. […] Abscissa: TUNEL positive cells per high-powered microscopic field; Ctrl, control addition of PBS to cultures; error bars represent SD. FIG. 12B. […] Ctrl, control PBS addition; ocFAS crosslinking, positive control.
as §1

[4] = tested on: caspase-3 activity (DEVD-AFC cleavage); assay: Caspase-3 enzyme assay, cleavage of DEVD-AFC by whole cell lysate of transduced Jurkat T cells; assay type: cell-based; conditions: 6 hr
Method: as §2, §3, §1

HIV Protease = biological target: T1, HIV Protease (Human immunodeficiency virus type 1 group M subtype B, UniProt P04585); assay: In vivo substrate cleavage by co-transduced TAT-HIV Pr in Jurkat T cells, immunoblot; assay type: cell-based; conditions: 100 nM substrate, 50 nM TAT-HIV Pr, Jurkat T cells, immunoblot
T1 construct: PCR cloning the HIV Protease gene from HXB2R HIV strain; 6xHis (from the pTAT vector) (N); made in house; the purified protein was added to Jurkat T cells
Method: To assay for in vivo cleavage, p 16(−) Jurkat T cells were transduced with 100 nM TAT-Ap16 or control TAT-p16 protein (no HIV cleavage site) alone or in combination with 50 nM TATHIV Pr fusion protein for 5 hr and analyzed by anti-p16 immunoblot for in vivo cleavage at the HIV A proteolytic cleavage site (FIG. 10A). […] Size analysis of the cleaved TAT-A-p 16 protein was consistent with retention of the residual HIV half site present on the N′ terminus of p 16 (FIG. 10A, see lane 4 vs. 5).
Further, the TAT-Casp3MUT protein was transduced in combination with TAT-HIV Pr protein into cells (FIG. 10B).
The in vivo processing in co-transduced cells shown in FIGS. 10A and 10B is explained in more detail as follows. FIG. 10A. Cultures of p16(−) Jurkat T cells were transduced with TAT-p 16 or TAT-A-p 16 substrate proteins in combination with TATHIV Pr proteins for 5 hr and subjected to anti-p 16 immunoblot analysis. […] WCE, HepG2 whole cell lysate containing wild type endogenous p16; A-p16, cleaved TAT-A-16 product retaining the HIV half site on p16. FIG. 10B. Cultures of Jurkat T cells were transduced with TATCasp3MUT protein (TAT-“D” site-p 17 domain-“A” site-p12 domain) alone or in combination with TAT-HIV Pr (Pr) protein as indicated and immunoblotted with anti-Caspase-3 antibodies specific for the p17 domain. TAT-D-p17-A, cleaved product of TAT-Casp3 containing the N′ terminal HIV A half site.
as §1

[5] = tested on: Jurkat T cells infected with the NLHX strain of HIV-I; assay: Cytotoxicity of TAT-Casp3 on HIV infected Jurkat cultures, exclusionary dye viability analysis; assay type: cell-based; conditions: 100 nM, 16 hr, cultures approximately 50% HIV positive
From the text: To make this determination, Jurkat T cells were infected for 7-14 days with the NLHX strain of HIV-I and examined microscopically for HIV cytopathic effects. See Westervelt, P., et al., Identification of a determinant within the HIV-1 surface envelope glycoprotein critical for productive infection of cultured primary monocytes. Proc. Natl. Acad. Sci USA 88: 3097 (1991). At the start of each transduction experiment approximately 50% of the culture was HIV positive. HIV infected cultures were transduced for 16 hr with 100 nM TAT-Casp3WT or TATCasp3MUT protein and then assayed for cell viability (FIG. 13). […] In addition, we detected both the appearance of cells containing <2N DNA content and cells with condensed nuclei in TAT-Casp3 treated cells.
To determine if TAT-Casp3WT induced apoptosis was dependent on active HIV Protease in the infected cultures, HIV infected cultures were pretreated with 1 μg/ml Ritonavir prior to transduction with 100 nM TAT-Casp3WT protein (FIG. 5). […] In addition, the observed increased survival of Ritonavir treated cells is consistent with increased longevity of protease inhibitor treated HIV infected cells. See Coffin, J. M., et al. (supra).
The specific killing of HIV infected cells shown in FIG. 5 is explained in more detail as follows. Jurkat T cells were infected for 7-14 days with HIV strain NLHX, then transduced with TAT-Casp3WT (WT) or TAT-Casp3MUT (MUT) proteins for 16 hr and assayed for cell viability. […] Ctrl, control addition of PBS to cultures; abscissa, % viability of HIV positive cells in the population at start of transduction; error bars represent SD.
as §1

Molecule | cytotoxicity when transduced alone (Jurkat T cells [1]) | cells transduced (Jurkat T cells [2]) | TUNEL positive cells, protein transduced alone (Jurkat T cells [3]) | caspase activity, protein transduced alone [4] | cleavage at the HIV cleavage site when co-transduced with TAT-HIV Pr (HIV Protease) | TUNEL positive cells, co-transduced with TAT-HIV Pr (Jurkat T cells [3]; 100 nM plus 50 nM TAT-HIV Pr) | effect on viability of HIV positive cells [5] | effect on viability of HIV positive cells ([5]; listed as TATCasp3MUT)
TAT-HIV Pr: transducible HIV Protease, gene from HXB2R HIV strain cloned into pTAT | absence | 100% | only background levels; also recorded: remained at background levels | only background levels |  |  |  | 
B1 |  | ~100% | only background levels; also recorded: remained at background levels | only background levels | specific cleavage | only background; also recorded: remained at background levels | no effect | negligible effects
